From PMC5386385, “DRP-1 is required for BH3 mimetic-mediated mitochondrial fragmentation and apoptosis” (Cell Death & Disease, 2017)
One block for each molecule: values may come before it.

Experiments:
[1] = biological target: WT MCL-1 fusion protein (N-terminal His6-tag fused to amino acids Glu173-Arg329, containing the BH3, BH1 and BH2 domains) (human) (UniProt Q07820); assay: differential scanning fluorimetry (thermal shift assay); purified MCL-1 proteins (10 uM) with or without the indicated concentrations of ligand, Sypro-Orange, thermal ramping 0.3 °C per min between 25 and 94 °C, final DMSO 4% v/v; ΔTm against buffer without peptide
WT MCL-1 fusion protein (N-terminal His6-tag fused to amino acids Glu173-Arg329, containing the BH3, BH1 and BH2 domains) (human), sequence (Q07820 173-329): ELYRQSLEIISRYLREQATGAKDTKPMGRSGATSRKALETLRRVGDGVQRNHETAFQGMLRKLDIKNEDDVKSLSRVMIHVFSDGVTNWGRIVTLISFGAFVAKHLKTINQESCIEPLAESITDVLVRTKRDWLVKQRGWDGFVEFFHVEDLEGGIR

[2] = biological target: T1, WT MCL-1 fusion protein (N-terminal His6-tag fused to amino acids Glu173-Arg329, containing the BH3, BH1 and … (human, UniProt Q07820 173-329)); assay: as above; details: both partners purified
T1 construct: human MCL-1, amino acids E173-R329 (BH3, BH1 and BH2 domains); the results once say 172-329; Cloned into pOPIN F; also called MCL-1 (E173-R329); MCL-1 protein (173-329); source: E. coli BL21 (DE3) pLysS, purified (Ni-NTA IMAC, Superdex 200 SEC)
T1 sequence (Q07820 173-329): as above

Molecule: MCL-1 SAHB (stabilised alpha-helix of BCL-2 domains, designed to mimic the BH3 binding helix of MCL-1) (peptide)
thermal shift (ΔTm) at 10 uM [1]: 4 °C

B3: MS-1 (MCL-1 specific synthetic peptide) (peptide)
peptide: RPEIWMTQGLRRLGDEINAYYAR
notes: MCL-1 specific synthetic BH3 peptide; source: synthetic peptide (New England Peptide or GenScript)
temperature shift (ΔTm) at equimolar peptide and MCL-1 [2]: ~10 °C

Further lines, results first:

binding result [2]: binds
B1: PUMA peptide (peptide)
peptide: EQWAREIGAQLRRMADDLNA
notes: synthetic BH3 peptide of PUMA; source: synthetic peptide (New England Peptide or GenScript)

binding result [2]: binds
B2: NOXA peptide (peptide)
peptide: AELPPEFAAQLRKIGDKVYC
notes: synthetic BH3 peptide of NOXA; source: synthetic peptide (New England Peptide or GenScript)
